From patent publication US20210047435A1 (Janssen / Centocor, published 2021)
Residue numbers refer to the chain shown, from its start. Names may count otherwise. Values belong to the binder of their own block, whether it stands above or below them.

Target: T1, LTBR (form used for the KD not stated) (human, UniProt P36941 31-227, limits assumed)
T1 construct: neither the method nor the LTBR construct is described; also called human LTBR; TNFRSF3
Assay: method not stated; stapled scFv variant against LTBR

T1 sequence (P36941 31-227 limits assumed): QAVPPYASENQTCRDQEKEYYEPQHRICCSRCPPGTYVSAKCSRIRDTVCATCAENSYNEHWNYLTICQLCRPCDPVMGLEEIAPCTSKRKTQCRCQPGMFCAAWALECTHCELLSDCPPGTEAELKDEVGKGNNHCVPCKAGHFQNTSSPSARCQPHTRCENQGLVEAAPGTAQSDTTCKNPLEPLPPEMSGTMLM

- Kd: ~60 nM
B1: stapled scFv (VL3 Y36F S49Y F87Y) BHA10 (VH-VL) (scFv)
scFv: QVQLVQSGAEVKKPGSSVKVSCKASGYTFTTYYLHWVRQAPGCGLEWMGWIYPGNVHAQYNEKFKGRVTITADKSTSTAYMELSSLRSEDTAVYYCARSWEGFPYWGQGTTVTVSSGGGSGGGSGCPPCGGGGDIQMTQSPSSLSASVGDRVTITCKASQNVGINVAWFQQKPGKAPKSLIYSASYRYSGVPSRFSGSGSGTDFTLTISSLQPEDFATYYCQQYDTYPFTFGCGTKVEIK

- Kd: ~600 nM
B2: stapled scFv (VH CDR1 Y33A) BHA10 (VH-VL) (scFv)
scFv: B1 scFv with Y33A, F169Y, Y182S, Y220F
